Values of other authors in PMC9884707.

Biological target: SHARPIN PH domain (20-121) (Homo sapiens) (UniProt Q9H0F6)

Kd: 124 µM
Substance: SHARPIN PH domain (20-121) (from UniProt Q9H0F6)
